Measured values as given in US20210060068A1 (published 2021).
Changes are numbered by the printed parent chain.

Tests used:
Assay in all cases: SPR
[1] = target: T1, wild-type mouse IL-2Rβ (UniProt P16297 27-240)
T1 chain: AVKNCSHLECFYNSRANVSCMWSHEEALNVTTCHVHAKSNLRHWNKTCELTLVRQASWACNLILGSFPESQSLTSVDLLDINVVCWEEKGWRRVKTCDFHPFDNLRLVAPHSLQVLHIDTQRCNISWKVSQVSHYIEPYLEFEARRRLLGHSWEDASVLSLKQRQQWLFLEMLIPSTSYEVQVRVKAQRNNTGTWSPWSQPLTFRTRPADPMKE

[2] = target: 180
[3] = target: 163
[4] = target: 170
[5] = target: 172
[6] = target: 145
[7] = target: 176
[8] = target: 148
[9] = target: 182
[10] = target: 157
[11] = target: 150
[12] = target: 175
[13] = target: 162
[14] = target: 147
[15] = target: 177
[16] = target: 165
[17] = target: 146
[18] = target: 151
[19] = target: 160
[20] = target: 161
[21] = target: 149
[22] = target: 181

B1: wild-type mouse IL-2 (ligand)
chain: APTSSSTSSSTAEAQQQQQQQQQQQQHLEQLLMDLQELLSRMENYRNLKLPRMLTFKFYLPKQATELKDLQCLEDELGPLRHVLDLTQSKSFQLEDAENFISNIRVTVVKLKGSDNTFECQFDDESATVVDFLRRWIAFCQSIISTSPQ
Kd [1]: 4 µM

B2: orthoIL-2Rβ (receptor)
chain: T1 chain with H134D, Y135F
Kd [2]: 6 µM
Kd [3]: 1000 nM
Kd [4]: 2000 nM
Kd [5]: 2000 nM
Kd [6]: 4 µM
Kd [7]: 1000 nM
Kd [8]: 4 µM
Kd [9]: 3000 nM
Kd [10]: 4 µM
Kd [11]: 3000 nM
Kd [12]: 4 µM
Kd [13]: 3000 nM
Kd [14]: 8 µM
Kd [15]: 3000 nM
Kd [16]: 1000 nM
Kd [17]: 600 nM
Kd [18]: 2000 nM
Kd [19]: 1000 nM
Kd [20]: 3000 nM
Kd [21]: 4 µM
Kd [22]: 5 µM
